In patent US20170334973A1 (INTEGRATED BIOTHERAPEUTICS, published 2017):

T1: EBOV VLP (Ebola virus (EBOV), UniProt Q05320 33-676)
T1 sequence: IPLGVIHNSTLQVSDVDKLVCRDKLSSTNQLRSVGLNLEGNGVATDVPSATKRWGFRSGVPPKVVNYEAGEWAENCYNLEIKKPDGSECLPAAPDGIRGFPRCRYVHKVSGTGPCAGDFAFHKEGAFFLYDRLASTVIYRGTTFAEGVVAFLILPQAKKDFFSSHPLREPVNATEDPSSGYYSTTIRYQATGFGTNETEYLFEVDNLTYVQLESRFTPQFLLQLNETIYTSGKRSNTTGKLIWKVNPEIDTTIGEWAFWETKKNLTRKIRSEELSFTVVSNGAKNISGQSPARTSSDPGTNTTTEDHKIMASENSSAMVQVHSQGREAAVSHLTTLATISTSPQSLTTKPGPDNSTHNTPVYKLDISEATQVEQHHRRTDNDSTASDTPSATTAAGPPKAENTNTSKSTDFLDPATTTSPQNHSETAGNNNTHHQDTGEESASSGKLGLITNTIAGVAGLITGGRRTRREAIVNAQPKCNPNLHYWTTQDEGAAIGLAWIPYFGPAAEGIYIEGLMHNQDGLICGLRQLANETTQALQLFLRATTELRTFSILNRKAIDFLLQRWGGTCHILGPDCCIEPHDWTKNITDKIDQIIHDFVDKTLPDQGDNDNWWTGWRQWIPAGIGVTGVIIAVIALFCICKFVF

T2: MARV VLP (Marburg virus (MARV), UniProt P35253 19-681)
T2 sequence: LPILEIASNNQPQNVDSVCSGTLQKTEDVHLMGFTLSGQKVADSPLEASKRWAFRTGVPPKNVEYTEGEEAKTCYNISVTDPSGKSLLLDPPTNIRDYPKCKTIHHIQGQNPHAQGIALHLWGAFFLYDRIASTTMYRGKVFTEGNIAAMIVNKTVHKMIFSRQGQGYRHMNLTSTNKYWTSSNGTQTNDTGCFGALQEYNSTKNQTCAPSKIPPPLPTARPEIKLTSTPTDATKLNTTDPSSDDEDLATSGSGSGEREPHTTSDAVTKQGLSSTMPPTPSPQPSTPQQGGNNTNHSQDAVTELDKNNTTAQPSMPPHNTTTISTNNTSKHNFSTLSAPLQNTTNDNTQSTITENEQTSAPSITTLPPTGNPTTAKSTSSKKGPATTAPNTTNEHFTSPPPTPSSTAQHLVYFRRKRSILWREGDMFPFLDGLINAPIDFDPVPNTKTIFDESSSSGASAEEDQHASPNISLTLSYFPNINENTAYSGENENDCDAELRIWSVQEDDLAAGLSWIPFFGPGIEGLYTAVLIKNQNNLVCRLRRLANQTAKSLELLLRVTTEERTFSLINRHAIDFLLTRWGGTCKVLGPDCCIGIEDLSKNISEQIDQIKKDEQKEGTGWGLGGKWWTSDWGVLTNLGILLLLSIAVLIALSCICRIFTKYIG

T3: SUDV VLP (Sudan virus (SUDV), UniProt Q66814 33-676)
T3 sequence: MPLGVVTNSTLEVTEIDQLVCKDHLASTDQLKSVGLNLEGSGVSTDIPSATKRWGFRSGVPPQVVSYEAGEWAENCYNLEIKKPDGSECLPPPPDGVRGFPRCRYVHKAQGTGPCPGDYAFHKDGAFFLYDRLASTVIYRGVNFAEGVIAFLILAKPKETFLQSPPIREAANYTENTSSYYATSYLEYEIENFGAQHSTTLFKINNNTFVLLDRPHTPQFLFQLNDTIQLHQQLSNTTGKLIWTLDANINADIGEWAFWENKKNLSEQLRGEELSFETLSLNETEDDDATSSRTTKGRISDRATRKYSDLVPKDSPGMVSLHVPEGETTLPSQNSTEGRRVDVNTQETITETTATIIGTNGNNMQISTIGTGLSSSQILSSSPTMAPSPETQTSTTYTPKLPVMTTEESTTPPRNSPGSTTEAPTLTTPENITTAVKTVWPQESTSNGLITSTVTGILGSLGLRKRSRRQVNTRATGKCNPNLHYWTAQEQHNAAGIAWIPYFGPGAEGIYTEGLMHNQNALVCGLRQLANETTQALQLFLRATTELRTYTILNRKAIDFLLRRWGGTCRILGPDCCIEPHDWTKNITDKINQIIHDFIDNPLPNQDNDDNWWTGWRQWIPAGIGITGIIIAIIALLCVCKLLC

T4: MARV (Musoke strain) GP (Marburg virus (MARV), Musoke strain, UniProt P35253 19-648)
T4 sequence: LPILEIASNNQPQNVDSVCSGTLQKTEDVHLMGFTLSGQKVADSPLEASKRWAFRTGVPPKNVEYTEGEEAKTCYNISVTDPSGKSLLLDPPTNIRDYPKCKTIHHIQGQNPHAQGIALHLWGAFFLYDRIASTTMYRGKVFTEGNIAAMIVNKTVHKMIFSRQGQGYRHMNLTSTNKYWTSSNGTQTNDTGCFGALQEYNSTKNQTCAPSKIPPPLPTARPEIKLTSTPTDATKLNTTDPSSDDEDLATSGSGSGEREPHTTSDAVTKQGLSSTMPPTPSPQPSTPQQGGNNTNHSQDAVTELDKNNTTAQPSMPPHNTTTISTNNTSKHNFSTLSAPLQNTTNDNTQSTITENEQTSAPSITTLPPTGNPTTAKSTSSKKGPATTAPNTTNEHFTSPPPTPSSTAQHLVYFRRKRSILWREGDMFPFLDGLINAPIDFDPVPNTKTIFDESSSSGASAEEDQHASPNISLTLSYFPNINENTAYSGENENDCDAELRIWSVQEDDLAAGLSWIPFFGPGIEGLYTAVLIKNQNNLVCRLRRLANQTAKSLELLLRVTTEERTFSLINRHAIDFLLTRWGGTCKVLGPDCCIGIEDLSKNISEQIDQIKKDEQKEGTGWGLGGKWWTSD

T5: EBOV soluble GP (sGP) (Ebola virus (EBOV), UniProt P60170 33-324)
T5 sequence: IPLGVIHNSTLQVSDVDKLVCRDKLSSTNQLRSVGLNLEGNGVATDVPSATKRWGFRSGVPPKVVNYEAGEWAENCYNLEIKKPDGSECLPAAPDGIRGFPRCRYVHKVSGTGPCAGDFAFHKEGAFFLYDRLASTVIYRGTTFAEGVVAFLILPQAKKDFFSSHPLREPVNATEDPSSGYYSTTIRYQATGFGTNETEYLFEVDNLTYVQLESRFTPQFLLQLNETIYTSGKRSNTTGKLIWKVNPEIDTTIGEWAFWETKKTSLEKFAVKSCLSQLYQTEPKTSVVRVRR

T6: EBOV GPcl (Ebola virus (EBOV), UniProt Q05320 33-200; Q05320 502-632)
T6 sequence 1: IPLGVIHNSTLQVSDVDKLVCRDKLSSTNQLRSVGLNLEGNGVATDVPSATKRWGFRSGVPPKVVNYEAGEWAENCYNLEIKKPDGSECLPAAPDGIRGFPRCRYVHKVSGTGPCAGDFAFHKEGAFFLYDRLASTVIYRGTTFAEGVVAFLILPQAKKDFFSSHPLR
T6 sequence 2: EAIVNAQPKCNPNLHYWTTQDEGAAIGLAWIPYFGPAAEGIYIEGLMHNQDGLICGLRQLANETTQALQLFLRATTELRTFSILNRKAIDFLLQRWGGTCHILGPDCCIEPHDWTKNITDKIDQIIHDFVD

B1: FVM02P (antibody, V domains shown)
VH: EVQLVESGGGLVQPGGSLRLSCAASGFTGFTFSDYAFYWVRQAPGKGLEWVGFIRGKAYGGTADYAASVKGRFTISRDNSKNTAYLQMSSLKTEDSAVYYCTSQGVTVATPYHWGQGVLVTVSS
VL: DIVLTQSPLSLPVTPGEPASISCRSSQSLLHSGGKTYLYWYLQKPGQSPQLLIHEVSNRASGVPDRFSGSGSGTDFTLKISRVEAEDVGVYYCMQGIQLPLTFGGGTKVEIKR
B2: FVM03 (antibody, V domains shown)
VH: QVQLQESGPVLVKPSETLSLTCAVSGYSISSAYAWSWIRQPPGKGLEWVGYVGSSSDYNPSLKSRVTISRDTSKNRIFLNLRSLTAADTAVYYCARDRANNSMDVWGRGVLVTVSS
VL: EIVLTQSPDSLGVSLGERVTINCKSSQSLLYSSNNKNYLAWYQQKPGQAPKLLIYWASTRESGVPNRFSGSGSGTDFTLTISGLQAEDVAVYYCQQYYSTPLTFGQGTKVEIKR
B3: FVM09 (antibody, V domains shown)
VH: EVQLVQSGAEVKRPGESLTISCKTSGYSFTDSWVAWVRQMPGKGLEWLGSIYPGDSETKYNPSFQGHVTISADKSVTTTYLKWSSLKASDTATYYCVKGSETWGQGVLVTVSS
VL: QLVLTQPASLSASPGASASLTCTFSGGINVAGYNILWYQQKAGSPPRYLLRYKSDSTKDQGSGVPSRFSGSKDASANTGILRISGLQSEDEADYYCAIGHSSGWIFGGGTRLTVL

Experiments:
EBOV VLP = biological target: T1, EBOV VLP; assay: ELISA
MARV VLP = biological target: T2, MARV VLP; assay: ELISA
SUDV VLP = biological target: T3, SUDV VLP; assay: ELISA
MARV (Musoke strain) GP = biological target: T4, MARV (Musoke strain) GP; assay: GP ELISA, purified mAb
EBOV soluble GP (sGP) = biological target: T5, EBOV soluble GP (sGP); assay: ELISA
EBOV GPcl = biological target: T6, EBOV GPcl; assay: ELISA

Binder	EC50 (EBOV VLP)	EC50 (MARV VLP)	EC50 (SUDV VLP)	EC50 (MARV (Musoke strain) GP)	binding result (EBOV soluble GP (sGP))	binding result (MARV (Musoke strain) GP)	binding result (EBOV GPcl)
B1	0.489 nM	7.73 nM	0.351 nM	1 µg/mL	no binding		
B2		0.793 nM					
B3	24.2 nM		21.3 nM			no binding	no binding
